Results as given in patent publication US20180030144A1 (INNATE PHARMA, published 2018).
Substitutions are numbered along the chain they refer to. In names and notes the source's numbering stands.

T1: mouse CD73 expressed on a recombinant host cell line (mouse, UniProt Q61503 29-551)
T1 construct: whole, on cells; also called moCD73
T1 sequence (looked up): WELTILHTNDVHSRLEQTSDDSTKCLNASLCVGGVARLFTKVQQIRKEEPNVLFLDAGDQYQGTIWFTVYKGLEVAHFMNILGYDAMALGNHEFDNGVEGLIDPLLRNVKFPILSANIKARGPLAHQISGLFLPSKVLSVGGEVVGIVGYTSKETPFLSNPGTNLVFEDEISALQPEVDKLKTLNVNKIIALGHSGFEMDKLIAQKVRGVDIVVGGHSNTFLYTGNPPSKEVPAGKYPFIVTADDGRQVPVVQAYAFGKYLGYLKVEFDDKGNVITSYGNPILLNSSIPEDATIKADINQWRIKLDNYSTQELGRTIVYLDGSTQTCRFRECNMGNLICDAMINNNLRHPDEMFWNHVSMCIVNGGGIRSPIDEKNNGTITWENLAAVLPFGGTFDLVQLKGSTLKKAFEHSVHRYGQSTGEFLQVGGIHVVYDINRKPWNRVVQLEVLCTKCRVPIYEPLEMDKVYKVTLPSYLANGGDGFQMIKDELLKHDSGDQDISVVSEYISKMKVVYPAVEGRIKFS

T2: human CD73 mutant 18 (human, UniProt P21589 27-549)
T2 construct: Transfected in HEK293T cells
T2 chain: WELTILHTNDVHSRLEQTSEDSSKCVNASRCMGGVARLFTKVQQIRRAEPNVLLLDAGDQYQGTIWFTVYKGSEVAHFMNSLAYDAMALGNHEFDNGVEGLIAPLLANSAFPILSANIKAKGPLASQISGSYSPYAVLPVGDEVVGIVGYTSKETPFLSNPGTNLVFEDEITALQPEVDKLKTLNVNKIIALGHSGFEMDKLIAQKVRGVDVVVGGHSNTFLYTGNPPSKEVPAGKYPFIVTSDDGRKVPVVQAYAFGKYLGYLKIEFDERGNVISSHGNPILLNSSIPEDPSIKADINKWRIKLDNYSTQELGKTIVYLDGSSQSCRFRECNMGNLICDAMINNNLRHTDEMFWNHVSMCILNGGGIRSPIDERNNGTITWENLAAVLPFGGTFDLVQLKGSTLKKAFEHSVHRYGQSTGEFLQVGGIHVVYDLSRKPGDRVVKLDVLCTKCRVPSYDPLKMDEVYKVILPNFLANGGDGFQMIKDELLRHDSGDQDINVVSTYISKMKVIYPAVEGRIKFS

T3: human CD73 mutant 19 (human, UniProt P21589 27-549)
T3 construct: Transfected in HEK293T cells
T3 chain: T2 chain with S81A, A83R, S126A, S129A

T4: human CD73 mutant 22 (human, UniProt P21589 27-549)
T4 construct: Transfected in HEK293T cells
T4 chain: T2 chain with K71A, S81A, A83R, E99A, A110K, S131L, S133L, A136K, K304A

T5: human CD73 mutant 21 (human, UniProt P21589 27-549)
T5 construct: Transfected in HEK293T cells
T5 chain: T2 chain with K71A, S81A, A83R, E99A, A110K, Q127A, S131L, S133L, A136K

B1: antibody 11E1 (antibody, human IgG1, V domains shown)
VH: EIQLQQSGPELVKPGASVKVSCKASGYAFTSYNMYWVKQSHGKSLEWIGYIDPYNGGTSYNQKFKGKATLTVDKSSSTAYMHLNSLTSEDSAVYYCARGYGNYKAWFAYWGQGTLVTVSA
VL: DAVMTQTPKFLLVSAGDRVTITCKASQSVTNDVAWYQQKPGQSPKLLIYYASNRYTGVPDRFTGSGYGTDFTFTISTVQAEDLAVYFCQQDYSSLTFGAGTKLELK
notes: Produced as chimeric human IgG1 with heavy chain N297Q (Kabat EU numbering); also called 1E11
B2: antibody 6E1 (antibody, human IgG1, V domains shown)
VH: B1 VH with I2F, S44R, T58S, S85N, G101N
VL: B1 VL with D1S, A2I, V78M
notes: Produced as chimeric human IgG1 with heavy chain N297Q (Kabat EU numbering)
B3: antibody 3C12 (antibody, human IgG1, V domains shown)
VH: B1 VH with E1Q, T30A, Y35N, E46D, T58S, Q62L, K63T, S77T
VL: DVVMTQTPKFLLVSAGDRVTITCKASQSVSNDVAWYQQKPGQSPKLLIYYASTRYTGVPDRFTGSGYGTDFTFTISTVQAEDLAVYFCQQDYSSLTFGAGTKLELKR
notes: Produced as chimeric human IgG1 with heavy chain N297Q (Kabat EU numbering); RTVAAP)

Biological target: T1, mouse CD73 expressed on a recombinant …
Experiment: flow cytometry titration on a mouse-CD73-expressing recombinant host cell line, median of fluorescence

**Q.** Does B1 bind?
**A.** no binding (tested: about 30-40 µg/ml)

**Q.** Does B2 bind?
**A.** no binding (tested: about 30-40 µg/ml)

**Q.** Does B3 bind?
**A.** no binding (tested: about 30 µg/ml)

Biological target: T2, human CD73 mutant 18
Experiment: flow cytometry, HEK293T transfectants

**Q.** Does B1 bind?
**A.** no binding

**Q.** Does B2 bind?
**A.** no binding

**Q.** Does B3 bind?
**A.** no binding

Biological target: T3, human CD73 mutant 19
Experiment: flow cytometry, HEK293T transfectants

**Q.** Does B1 bind?
**A.** no binding

**Q.** Does B2 bind?
**A.** no binding

**Q.** Does B3 bind?
**A.** no binding

Biological target: T4, human CD73 mutant 22
Experiment: flow cytometry, HEK293T transfectants

**Q.** Does B1 bind?
**A.** no binding

**Q.** Does B2 bind?
**A.** no binding

**Q.** Does B3 bind?
**A.** no binding

Biological target: T5, human CD73 mutant 21
Experiment: flow cytometry, HEK293T transfectants

**Q.** Does B1 bind?
**A.** no binding

**Q.** Does B2 bind?
**A.** no binding

**Q.** Does B3 bind?
**A.** no binding

Biological target: T6, cynomolgus CD73 expressed on a recombinant host cell line (cynomolgus)
T6 construct: whole, on cells; also called cynoCD73
Experiment: flow cytometry titration on a cynomolgus-CD73-expressing recombinant host cell line, median of fluorescence

**Q.** B1 was tested. Which “EC50 (read off the curve)” value did it give?
**A.** ~0.4 µg/mL

**Q.** For B2, which “EC50 (read off the curve)” value is on record?
**A.** ~0.4 µg/mL

**Q.** How did the “EC50 (read off the curve)” value turn out when B3 was run?
**A.** ~0.4 µg/mL
